Patent US20160200782A1 (MOERAE MATRIX, published 2016)

T1: IRAK4(h) (human, UniProt Q9NWZ3 1-460, limits assumed)
T1 sequence (looked up): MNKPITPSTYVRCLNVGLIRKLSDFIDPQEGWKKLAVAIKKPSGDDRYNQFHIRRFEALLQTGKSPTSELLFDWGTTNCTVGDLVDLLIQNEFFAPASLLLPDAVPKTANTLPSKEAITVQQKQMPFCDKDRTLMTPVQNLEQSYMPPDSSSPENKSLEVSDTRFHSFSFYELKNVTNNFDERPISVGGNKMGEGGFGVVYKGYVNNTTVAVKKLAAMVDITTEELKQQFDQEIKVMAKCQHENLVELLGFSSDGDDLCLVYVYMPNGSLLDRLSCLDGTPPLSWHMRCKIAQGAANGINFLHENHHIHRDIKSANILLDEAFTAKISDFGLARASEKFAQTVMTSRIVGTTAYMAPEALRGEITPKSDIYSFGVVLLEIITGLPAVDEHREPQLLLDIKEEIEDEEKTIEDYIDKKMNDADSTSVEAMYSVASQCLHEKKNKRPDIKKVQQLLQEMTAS

T2: ARK5(h) (human, UniProt O60285 1-661, limits assumed)
T2 sequence (looked up): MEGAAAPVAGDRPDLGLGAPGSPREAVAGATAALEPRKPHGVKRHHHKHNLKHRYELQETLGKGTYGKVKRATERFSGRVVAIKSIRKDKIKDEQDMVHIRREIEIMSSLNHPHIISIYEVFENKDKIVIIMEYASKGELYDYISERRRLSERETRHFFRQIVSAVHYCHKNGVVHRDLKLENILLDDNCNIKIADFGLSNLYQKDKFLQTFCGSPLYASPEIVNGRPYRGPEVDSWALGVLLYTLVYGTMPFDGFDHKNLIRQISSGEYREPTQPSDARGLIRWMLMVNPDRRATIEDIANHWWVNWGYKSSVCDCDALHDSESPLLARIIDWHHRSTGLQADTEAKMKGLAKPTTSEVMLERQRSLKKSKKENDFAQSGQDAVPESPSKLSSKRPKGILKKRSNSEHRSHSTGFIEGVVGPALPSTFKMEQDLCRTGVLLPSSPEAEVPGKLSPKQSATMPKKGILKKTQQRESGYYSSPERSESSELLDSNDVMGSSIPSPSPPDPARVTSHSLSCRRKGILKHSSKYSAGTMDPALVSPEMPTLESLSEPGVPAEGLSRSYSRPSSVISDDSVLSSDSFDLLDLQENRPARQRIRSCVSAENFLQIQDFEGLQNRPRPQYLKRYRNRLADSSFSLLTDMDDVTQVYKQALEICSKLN

T3: PKCζ(h) (human, UniProt Q05513 1-592)
T3 sequence (looked up): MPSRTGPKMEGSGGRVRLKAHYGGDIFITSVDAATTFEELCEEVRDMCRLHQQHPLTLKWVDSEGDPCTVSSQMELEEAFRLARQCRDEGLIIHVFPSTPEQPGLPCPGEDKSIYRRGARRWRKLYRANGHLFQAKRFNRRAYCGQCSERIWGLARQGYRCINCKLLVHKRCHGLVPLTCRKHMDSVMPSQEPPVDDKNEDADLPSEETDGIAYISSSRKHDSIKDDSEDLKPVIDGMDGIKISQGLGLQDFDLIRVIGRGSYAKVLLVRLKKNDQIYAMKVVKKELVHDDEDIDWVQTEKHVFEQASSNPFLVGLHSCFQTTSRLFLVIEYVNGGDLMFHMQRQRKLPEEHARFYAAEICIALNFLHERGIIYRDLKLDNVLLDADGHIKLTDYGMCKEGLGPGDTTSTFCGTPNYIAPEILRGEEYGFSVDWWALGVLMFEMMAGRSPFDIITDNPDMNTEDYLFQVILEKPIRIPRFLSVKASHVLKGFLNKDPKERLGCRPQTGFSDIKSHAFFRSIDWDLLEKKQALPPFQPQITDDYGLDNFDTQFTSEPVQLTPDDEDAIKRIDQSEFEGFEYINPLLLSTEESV

T4: eEF-2K(h) (human, UniProt O00418 1-725, limits assumed)
T4 sequence (looked up): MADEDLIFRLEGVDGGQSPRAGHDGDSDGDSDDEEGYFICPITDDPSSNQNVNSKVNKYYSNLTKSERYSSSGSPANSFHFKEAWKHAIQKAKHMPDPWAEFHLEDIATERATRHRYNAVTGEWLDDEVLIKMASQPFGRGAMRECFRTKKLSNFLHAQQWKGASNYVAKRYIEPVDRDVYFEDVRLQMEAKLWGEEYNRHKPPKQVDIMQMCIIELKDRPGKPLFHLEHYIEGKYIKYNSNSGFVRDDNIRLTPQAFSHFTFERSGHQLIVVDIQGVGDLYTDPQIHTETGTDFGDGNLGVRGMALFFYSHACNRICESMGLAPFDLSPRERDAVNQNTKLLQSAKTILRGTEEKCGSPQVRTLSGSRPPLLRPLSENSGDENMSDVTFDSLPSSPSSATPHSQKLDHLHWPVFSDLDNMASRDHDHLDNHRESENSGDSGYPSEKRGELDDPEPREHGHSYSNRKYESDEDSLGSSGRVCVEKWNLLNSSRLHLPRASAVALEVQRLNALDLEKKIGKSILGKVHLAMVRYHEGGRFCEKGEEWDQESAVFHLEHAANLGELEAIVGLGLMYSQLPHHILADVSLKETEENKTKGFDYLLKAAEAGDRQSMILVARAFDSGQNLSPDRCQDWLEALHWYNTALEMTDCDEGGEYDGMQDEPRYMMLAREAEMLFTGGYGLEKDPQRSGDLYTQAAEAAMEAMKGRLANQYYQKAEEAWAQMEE


Columns and labels:
Assay in all cases: cell-based or functional assay
IRAK4(h) = biological target: T1, IRAK4(h)
ARK5(h) = biological target: T2, ARK5(h)
IRR(h) = IRR(h) (human, UniProt P14616 960-1297, limits assumed)
LOK(h) = LOK(h) (human, UniProt O94804 1-348, limits assumed)
WNK2(h) = WNK2(h) (human, UniProt Q9Y3S1 166-489, limits assumed)
Met(D1246N)(h) = Met(D1246N)(h) (human, UniProt P08581-2 974-1408, limits assumed)
PKCζ(h) = biological target: T3, PKCζ(h)
eEF-2K(h) = biological target: T4, eEF-2K(h)
EGFR(T790M,L858R)(h) = EGFR(T790M,L858R)(h) (human, UniProt P00533 696-1210, limits assumed)
IRAK1(h) = IRAK1(h) (human, UniProt P51617 194-712, limits assumed)
Also: test concentration or dose not given here.

Row | Binder | % activity (IRAK4(h)) [%] | % activity (ARK5(h)) [%] | % activity (IRR(h)) [%] | % activity (LOK(h)) [%] | % activity (WNK2(h)) [%] | % activity (Met(D1246N)(h)) [%] | % activity (PKCζ(h)) [%] | % activity (eEF-2K(h)) [%] | % activity (EGFR(T790M,L858R)(h)) [%] | % activity (IRAK1(h)) [%]
1 | FAKLAARLYRKALARQLGVAA [MMI-0300] | 59 | 78 | 8 | 37 | 64 | 82 | 81 | 91 | 85 | 95
2 | KAFAKLAARLYRKALARQLGVAA [MMI-0400] | 59 | 69 | 8 | 18 | 54 | 31 | 75 | 43 | 78 | 93
